Experimental data reported in patent US20150266962A1 (Pfizer, published 2015).

Molecular target: T1, recombinant human IL-13 receptor alpha 2 (hIL-13-Rα2) (human, UniProt Q14627 27-343)
T1 construct: Recombinant soluble antigen coated on ELISA plates or used in Biacore; also called rec hIL-13Rα2; rhIL-13Rα2
T1 sequence (looked up): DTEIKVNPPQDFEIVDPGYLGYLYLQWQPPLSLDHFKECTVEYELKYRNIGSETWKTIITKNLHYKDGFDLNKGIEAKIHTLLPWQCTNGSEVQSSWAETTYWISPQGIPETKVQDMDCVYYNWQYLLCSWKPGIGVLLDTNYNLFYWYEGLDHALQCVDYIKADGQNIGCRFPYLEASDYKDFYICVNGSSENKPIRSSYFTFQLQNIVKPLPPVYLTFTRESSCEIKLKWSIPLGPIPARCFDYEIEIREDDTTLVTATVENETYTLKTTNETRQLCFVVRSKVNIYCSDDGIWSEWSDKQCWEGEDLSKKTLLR
Assay: competition ELISA on plate-coated recombinant hIL-13-Rα2; competitor: constant amount of biotin-ch08, detected with streptavidin-HRP
Experimental: A competition ELISA was performed to examine whether ch07 and ch08 have distinct binding epitopes. Prior to the competition ELISA experiment, ch07 and ch08 were biotinylated. The EC50 of the biotinylated ch07 (biotin-ch07) and ch08 (biotin-ch08) were determined by direct standard ELISA. For the competition ELISA, recombinant hIL-13-Rα2 was coated onto 96-well plates at 50 ul of 2 μg/mL in PBS overnight at 4° C. The plates were then blocked and washed following a standard ELISA protocol. 3-fold serially diluted ch07 and ch08 (2× final concentration) were mixed with a constant amount of biotin-ch07 (FIG. 2A) or biotin-ch08 (FIG. 2B), respectively and were added to the plate and incubated for 1 hour at room temperature. The amount of biotinylated chimeric antibody bound was detected by HRP conjugated streptavidin at 1:5000 for 1 hour. […] Similar results are obtained when the same set of antibodies were used to compete with biotin-ch08 (FIG. 2B).

B1: chimeric antibody ch08 (antibody, human IgG1, V domains shown)
VH: EVQLVESGGDLVRPGGSLQLSCAASGFTFSRNGMSWVRQTPDRRLEWVATVSSGGSYIYYADSVKGRFTISRDNARNTLYLQMSSLKSEDTAMYYCARQGTTALATRFFDVWGAGTTVTVSS
VL: DIVMTQSHKFISTSVGDRVSITCKASQDVGTAVAWYQQIPGQSPKLLIYSASYRSTGIPDRFTGSGSGTDFSFIISSVQAEDLALYYCQHHYSAPWTFGGGTTLDIK
notes: also called ch08Hc + Lc; chimeric antibody 08
In the case of B1, the “IC50 (read off the curve)” value is reported as roughly 6 nM.
